Data on 24 sequences can be found in the Immune Epitope Database (IEDB).

Bounds are passed on as bounds.

For assay [1], the target named is HLA-A*26:01. The assay is described as follows: IEDB peptide-MHC binding, purified MHC/competitive/radioactivity; filed as Kd, often an IC50 or EC50 that approximates it; ≥ and ≤ were set here for values at or beyond the usual limits of such assays.
A further assay deals with HLA-A*30:02. The assay is described as above.
Assay [2] concerns the target HLA-A*24:02. Described as above.
The next assay addresses HLA-A*29:02. The description is as above.
Another assay addresses HLA-A*23:01. The assay is described as above.
The target in another assay is HLA-A*01:01. The assay is described as above.
A further assay addresses HLA-A*02:01. The assay is described as follows: IEDB peptide-MHC binding, purified MHC/competitive/fluorescence; ≥ and ≤ were set here for values at or beyond the usual limits of such assays. The note with it: source organism: Zaire ebolavirus.
Assay [3] deals with HLA-A*24:02. The description is as above.
Another assay has as its target HLA-A*68:02. The assay is described as follows: IEDB peptide-MHC binding, purified MHC/competitive/radioactivity; filed as Kd, often an IC50 or EC50 that approximates it; ≥ and ≤ were set here for values at or beyond the usual limits of such assays. Conditions: source organism: Homo sapiens.
In assay [4] the target is HLA-A*26:01. The assay is described as follows: IEDB peptide-MHC binding, purified MHC/direct/fluorescence; filed as Kd, often an IC50 or EC50 that approximates it; ≥ and ≤ were set here for values at or beyond the usual limits of such assays.
A further assay deals with HLA-B*40:01. The assay is described as above. Conditions: source organism: Orthohantavirus hantanense.
The target in a further assay is HLA-B*18:01. Described as above. Conditions: source organism: Orthohantavirus hantanense.
A further assay has as its target HLA-B*08:01. Put plainly: IEDB peptide-MHC binding, purified MHC/competitive/radioactivity; filed as Kd, often an IC50 or EC50 that approximates it; ≥ and ≤ were set here for values at or beyond the usual limits of such assays.
The target of a further assay is HLA-A*03:01. Described as above. Conditions: source organism: Vaccinia virus WR.
The next assay concerns the target HLA-A*68:01. The description is as above. Conditions: source organism: Vaccinia virus WR.
Another assay addresses HLA-A*33:01. The assay is described as above. Conditions: source organism: Vaccinia virus WR.
In the next assay the target is HLA-A*31:01. The assay is described as above. Conditions: source organism: Vaccinia virus WR.
Another assay has as its target HLA-A*11:01. The description is as above. Conditions: source organism: Vaccinia virus WR.
Setting [5] is: source organism: Mammarenavirus lassaense.
Setting [6] is: source organism: Zaire ebolavirus.
Where [7] appears, read: source organism: SARS coronavirus Tor2.
[8] abbreviates: source organism: Lassa virus Josiah.
Where [9] appears, read: source organism: Vaccinia virus WR.
The mark [10] stands for this setting: source organism: Mammarenavirus juninense.
The mark [11] stands for this setting: source organism: Mammarenavirus brazilense.
[12] abbreviates: source organism: Lymphocytic choriomeningitis virus (strain Armstrong).
[13] abbreviates: source organism: Mammarenavirus machupoense.

Take AGFVAGLTY: the dissociation constant (Kd) (in general, the free concentration of one partner at which half of the binding sites on the other are occupied at equilibrium, for simple one-to-one binding) in the assay with HLA-A*26:01 [1] (setting [5]) was at least 77900 nM; in the assay with HLA-A*30:02 (setting [5]), 520 nM; in the assay with HLA-A*24:02 [2] (setting [5]), at least 52600 nM; in the assay with HLA-A*29:02 (setting [5]), 130 nM; with HLA-A*23:01 (setting [5]), 8020 nM; with HLA-A*01:01 (setting [5]), at least 35300 nM.

For the sequence ARFSGLLIV, the values for the IC50 in the assay with HLA-A*02:01 and in the assay with HLA-A*24:02 [3] (setting [6]) were at least 461000 nM and at least 267000 nM, respectively.

Turning to DDDDDIPFP, the IC50 (commonly the point on the concentration scale where inhibition reaches its midpoint) with HLA-A*24:02 [3] (setting [6]) is at least 124000 nM.

In the assay with HLA-A*24:02 [3] (setting [6]), DDPTDSQDT showed a concentration for half-maximal inhibition (IC50) of 69400 nM.

DLSDQIAEL: the dissociation constant (Kd) with HLA-A*68:02 came out at 486 nM.

For the sequence DPAKAYKDY, the Kd with HLA-A*26:01 [1] (setting [7]) was at least 85500 nM; with HLA-A*30:02 (setting [7]) it was 9270 nM; with HLA-A*24:02 [2] (setting [7]) it was at least 77600 nM; with HLA-A*29:02 (setting [7]), 446 nM; with HLA-A*23:01 (setting [7]), at least 77800 nM; with HLA-A*01:01 (setting [7]), at least 119000 nM.

Take DQIGDIIIA: the half-maximal inhibitory concentration (IC50) with HLA-A*24:02 [3] (source organism: Variola virus) came to 790 nM.

With DVSEWDAVY, the dissociation constant Kd with HLA-A*26:01 [4] (source organism: Salmonella enterica subsp. enterica serovar Paratyphi A str. ATCC 9150) stood at 4 nM.

In the case of EEAIGKVLL, the dissociation constant (Kd) with HLA-B*40:01 amounted to 13.7 nM; in the assay with HLA-B*18:01, 1720 nM.

EFCDMLRLF: in the assay with HLA-A*26:01 [4] (source organism: Mammarenavirus guanaritoense), the Kd is at least 20000 nM.

With EGKDTPGGY, the Kd with HLA-A*26:01 [1] (setting [8]) is at least 77900 nM; with HLA-A*30:02 (setting [8]), at least 76900 nM; in the assay with HLA-A*24:02 [2] (setting [8]), at least 77500 nM; with HLA-A*29:02 (setting [8]) it was at least 78900 nM; with HLA-A*23:01 (setting [8]), at least 63200 nM; in the assay with HLA-A*01:01 (setting [8]), at least 37900 nM.

Consider EKMRRERAA, for which the dissociation constant (Kd) with HLA-B*08:01 (setting [9]) is 1.84 nM.

ELADTSLSGY: the Kd with HLA-A*26:01 [1] (setting [7]) was 24.5 nM; with HLA-A*30:02 (setting [7]), 76.7 nM; with HLA-A*24:02 [2] (setting [7]), at least 70300 nM; in the assay with HLA-A*29:02 (setting [7]), 89.2 nM; in the assay with HLA-A*23:01 (setting [7]), at least 70000 nM; with HLA-A*01:01 (setting [7]), 73.6 nM.

As for ELMYIFAAL, the dissociation constant Kd in the assay with HLA-B*08:01 (setting [9]) was determined as 30.4 nM.

On to ELVKVREKQL, for which the Kd with HLA-A*68:02 stood at 4330 nM.

In the case of EMVCFHEFL, the results for the Kd with HLA-A*24:02 [2] (setting [10]), with HLA-A*29:02 (setting [10]) and with HLA-A*23:01 (setting [10]) were 16900 nM, at least 10000 nM and 1990 nM, respectively.

Consider ESASKSASVY, for which the dissociation constant (Kd) is 286 nM with HLA-A*26:01 [1] (setting [7]); 659 nM in the assay with HLA-A*30:02 (setting [7]); at least 70300 nM in the assay with HLA-A*24:02 [2] (setting [7]); 374 nM in the assay with HLA-A*29:02 (setting [7]); at least 70000 nM with HLA-A*23:01 (setting [7]); 300 nM with HLA-A*01:01 (setting [7]).

EYGFTRRFKF: the equilibrium dissociation constant (Kd) in the assay with HLA-A*24:02 [2] (setting [11]) is 134 nM; in the assay with HLA-A*29:02 (setting [11]) it was 133 nM; with HLA-A*23:01 (setting [11]) it was 45.3 nM.

As for FIESSICLDY, the Kd with HLA-A*03:01 is 2920 nM; in the assay with HLA-A*29:02 (setting [9]), at least 40500 nM; in the assay with HLA-A*68:01, 964 nM; with HLA-A*33:01, 5650 nM; in the assay with HLA-A*31:01, 10100 nM; with HLA-A*11:01, 3930 nM.

As for FQPQNGQFI, the dissociation constant Kd with HLA-A*26:01 [1] (setting [12]) is at least 77900 nM; in the assay with HLA-A*30:02 (setting [12]) it was at least 76900 nM; with HLA-A*24:02 [2] (setting [12]) it was 1260 nM; with HLA-A*29:02 (setting [12]), at least 78900 nM; with HLA-A*23:01 (setting [12]) it was at least 20400 nM; with HLA-A*01:01 (setting [12]), at least 78100 nM.

Regarding FYLCFLAFLL, the Kd with HLA-A*26:01 [1] (setting [7]) is at least 69700 nM; with HLA-A*30:02 (setting [7]) it was at least 85700 nM; with HLA-A*24:02 [2] (setting [7]) it was 13.6 nM; with HLA-A*29:02 (setting [7]), 76.7 nM; with HLA-A*23:01 (setting [7]) it was 0.0676 nM; with HLA-A*01:01 (setting [7]) it was at least 52500 nM.

Regarding GERSRCYSVY, the dissociation constant Kd is at least 69700 nM with HLA-A*26:01 [1] (setting [13]); 4510 nM with HLA-A*30:02 (setting [13]); at least 70300 nM in the assay with HLA-A*24:02 [2] (setting [13]); at least 71400 nM with HLA-A*29:02 (setting [13]); at least 49100 nM with HLA-A*23:01 (setting [13]); at least 70400 nM with HLA-A*01:01 (setting [13]).

IFFASFYYI: the dissociation constant Kd with HLA-A*26:01 [1] (setting [7]) was 1800 nM; with HLA-A*30:02 (setting [7]), 5130 nM; in the assay with HLA-A*24:02 [2] (setting [7]), 12.2 nM; with HLA-A*29:02 (setting [7]), 28.1 nM; with HLA-A*23:01 (setting [7]), 6.45 nM; in the assay with HLA-A*01:01 (setting [7]), 1300 nM.

For IKRGLRTLIL, the Kd with HLA-B*08:01 (source organism: Dengue virus 2 Jamaica/1409/1983) came out at 10300 nM.
